Results on 1 substance are retold here after publication PMC11033526, “Direct binding of calmodulin to the cytosolic C-terminal regions of sweet/umami taste receptors” (Journal of Biochemistry, 2023).

Assay [1] has as its target biotin-mT1r1 CT peptide (cytosolic C-terminal region of mouse taste receptor type 1 subunit 1) (mouse) (UniProt Q99PG6). The experiment in a line: SPR; Biacore 2000; biotinylated T1r peptides on a CAP chip (Biotin CAPture Kit); mCaM injected, 2-fold dilutions from 50 μM, -Ca2+ (1 mM EGTA), 25°C, 30 μl/min. (In general: SPR reads the build-up and loss of mass on a sensor chip optically.)

Assay [2] concerns the target biotin-mT1r2 CT peptide (cytosolic C-terminal region of mouse taste receptor type 1 subunit 2) (mouse) (UniProt Q925I4). Described as above.
Assay [3] has as its target biotin-mT1r3 CT peptide (cytosolic C-terminal region of mouse taste receptor type 1 subunit 3) (mouse) (UniProt Q925D8). The assay is described as above.
The target in assay [4] is FLAG-ySUMO-mT1r2 CTΔ (mouse). The assay can be described thus: SPR; Biacore 2000; ySUMO-fusion proteins amine-coupled on a CM5 chip, ySUMO on the reference cell; mCaM injected, 2-fold dilutions from 40 μM, -Ca2+ (1 mM EGTA), 25°C, 30 μl/min.
Assay [5] concerns the target FLAG-ySUMO-mT1r3 CTΔ (mouse). The description is as above.
The target of assay [6] is biotin-mT1r1 CT peptide (cytosolic C-terminal region of mouse taste receptor type 1 subunit 1) (mouse) (UniProt Q99PG6). The assay can be described thus: SPR; Biacore 2000; biotinylated T1r peptides on a CAP chip (Biotin CAPture Kit); mCaM injected, 2-fold dilutions from 50 μM, +Ca2+ (1 mM CaCl2), 25°C, 30 μl/min; KD from equilibrium responses, 1:1 model.
In assay [7] the target is biotin-mT1r2 CT peptide (cytosolic C-terminal region of mouse taste receptor type 1 subunit 2) (mouse) (UniProt Q925I4). Described as above.
Assay [8] deals with biotin-mT1r3 CT peptide (cytosolic C-terminal region of mouse taste receptor type 1 subunit 3) (mouse) (UniProt Q925D8). The assay is described as above.
Assay [9] has as its target FLAG-ySUMO-mT1r2 CTΔ (mouse). The experiment in a line: SPR; Biacore 2000; ySUMO-fusion proteins amine-coupled on a CM5 chip, ySUMO on the reference cell; mCaM injected, 2-fold dilutions from 40 μM, +Ca2+ (1 mM CaCl2), 25°C, 30 μl/min; KD from equilibrium responses, 1:1 model.
The target in assay [10] is FLAG-ySUMO-mT1r3 CTΔ (mouse). The description is as above.

biotin-mT1r1 CT peptide (cytosolic C-terminal region of mouse taste receptor type 1 subunit 1) (mouse), sequence (Q99PG6 other isoform, or with tags, fused parts or gaps): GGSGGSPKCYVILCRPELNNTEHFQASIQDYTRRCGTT
biotin-mT1r2 CT peptide (cytosolic C-terminal region of mouse taste receptor type 1 subunit 2) (mouse), sequence (Q925I4 other isoform, or with tags, fused parts or gaps): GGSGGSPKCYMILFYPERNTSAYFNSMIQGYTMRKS
biotin-mT1r3 CT peptide (cytosolic C-terminal region of mouse taste receptor type 1 subunit 3) (mouse), sequence (Q925D8 other isoform, or with tags, fused parts or gaps): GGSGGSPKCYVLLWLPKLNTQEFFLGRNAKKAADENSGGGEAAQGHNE

As to “mouse calmodulin (from UniProt P0DP26 1-149) (natural protein)”, the response at 50 μM mCaM injection in [1] stood at 5 RU; in [2], 9.4 RU; in [3], 16 RU. In addition, the response at 40 μM mCaM injection is 9.2 RU in assay [4] and 13 RU in assay [5]. This substance had a Req value at 25 μM mCaM injection in assay [6] of 10.6 RU. Further, the Req value at 50 μM mCaM injection in assay [7] was 11 RU; in assay [8] it was 36.7 RU. Besides, the dissociation constant (Kd) in assay [9] stood at 41 µM; in assay [10], 80 µM. Moreover, the values for the Req value at 40 μM mCaM injection in assay [9] and in assay [10] were 114 RU and 101 RU, respectively.

Broadly, the Kd is the equilibrium constant for the complex coming apart. Higher therefore signals weaker binding.
